The values that follow come from patent US20110104167A1, “Compositions and Methods for Diagnosing and Treating Insulin Resistance” (YEDA RESEARCH AND DEVELOPMENT CO. LTD., priority 2004, published 2011).

The subject of the test is CHO-T cells. Kind of test: Phosphorylation (mobility shift) of truncated IRS-1 PH/PTB constructs in CHO-T cells. The note with it: for effect of inhibitor pretreatment on the mobility shift of PH/PTB-L induced by chronic insulin: 30 min inhibitor, then 100 nM insulin 30 min. The class given is cell-based, Chinese Hamster. How it is done:
FIGS. 7a-c show In vivo phosphorylation of PH/PTB-L in response to insulin. CHO-T cells were transiently transfected with pcDNA3-Myc-PH/PTB (1-1290 nt) or with an insert-free plasmid (control). Twenty-four hours post-transfection, the cells were deprived of serum for 16 h and were then treated with insulin for the indicated time periods. Cell extracts (100 μg) were resolved on 10% SDS-PAGE and immunoblotted with anti-pY or anti-Myc antibodies (FIG. 7a). In parallel, samples (100 μg, 40 μl) were incubated with 3 units (U) of calf intestine phosphatase (CIP) at 37° C. for 1 h. The samples were resolved on 10% SDS-PAGE and immunoblotted with anti-Myc antibodies (FIG. 7b). The results are of a representative of two experiments. FIG. 7c—CHO^PH/PTB-L cells were starved in serum-free F12 medium for 16 h. The cells were treated for 30 min with the indicated inhibitors prior to being treated with 100 nM insulin for 30 min. Cell extracts were prepared, samples were resolved on 10% SDS-PAGE and were immunoblotted with anti-Myc antibodies. Results are of a representative of three experiments.
FIGS. 8a-b show the effects of insulin on Serine phosphorylation of Myc-PH/PTB-L^7A CHO-T cells were transiently transfected with constructs encoding Myc-PH/PTB-L (1-1290 nt), either wild type (WT) or the 7A mutant (FIG. 8a). Alternatively, the cells were transfected or with the constructs encoding Myc-PH/PTB-L (1-1290 nt; 1-430 aa) or Myc-PH/PTB-S (1-1095 nt; 1-365 aa, FIG. 8b). Following 24 hours in culture, the cells were incubated in serum-free F12 medium for 16 ch prior to being treated with insulin for the indicated times. Cell extracts were resolved on 10% SDS-PAGE and immunoblotted with anti-Myc antibodies. Results are of a representative of three experiments.
FIGS. 9a-b show the effects of insulin and calyculin A on Ser phosphorylation of PH/PTB-L mutants. FIG. 9a—CHO-T cells were transiently transfected with constructs expressing either Myc-PH/PTB^WT or the following PH/PTB mutants: S336A, S407A, S408A, S407/8A and S3A (S336/407/408A). Following 24 hours the cells were deprived of serum for 16 h, and were treated with insulin for the indicated times. Cell extracts were resolved on 10% SDS-PAGE and immunoblotted with anti-Myc antibodies. The results are of a representative of two-three experiments. FIG. 9b—CHO-T cells were transiently transfected with pcDNA3-myc-PH/PTB^WT or pcDNA3-myc-PH/PTB^S408A. Following 24 hours the cells were starved for 16 h and were then treated either with 100 nM insulin for 30 min or with 25 nM calyculin A for 60 min. Cell extracts were resolved on 10% SDS-PAGE and were immunoblotted with anti-Myc antibodies. Results are of a representative of two experiments.
Plasmids construction—i. Myc-tagged-IRS-1 The cDNA, encoding for the mouse IRS-1 in the pCNA-3 expression plasmid (35) was digested with Hind III and BspE-1. This deleted a 9 by fragment from the 5′-IRS-1 cDNA that was replaced by a double stranded synthetic oligonucleotide encoding the Myc tag and the missing amino-acids of IRS-1 (bold) […] (SEQ ID NO. 9). ii. Myc-tagged truncated IRS-1 (aa 1-430, PH/PTB-L) Myc-tagged mouse IRS-1 cDNA (N-terminus, 1-1290 nt), encoding for the first 430 aa of IRS-1, was PCR-amplified with the following primers. 5′-CAGGATCCGCATATGGAACAAAAGCTC-3′ (sense) (SEQ ID NO. 10); 5′-GAGAATTCATCAGGGACTAGAACCATA-3′ (anti-sense) (SEQ ID NO. 11), using as a template the pcDNA3-Myc-IRS-1 plasmid. The PCR product was ligated into a pGEM-T. The insert was excised from pGEM-T with BamH I and EcoR I (italic), and then was ligated into pcDNA3 at the same restriction sites to generate pcDNA3-Myc-IRS-1^PH/PTB-L. iii. Myc-tagged truncated IRS-1 (aa 1-365, PH/PTB-S) Myc-tagged mouse IRS-1 cDNA (N-terminus, 1-1095 nt), encoding for the first 365 aa of IRS-1, was PCR-amplified with the following primers: 5′ […]-3′ (sense) (SEQ ID NO. 12); 5′ […] 3′ (anti sense) (SEQ ID NO. 13) using as a template the pcDNA3-Myc-IRS-1. […]

On to `COc1cccc(-c2cc(=O)c3ccccc3o2)c1N` [PD98059], for which the “effect of inhibitor pretreatment on the mobility shift of PH/PTB-L induced by chronic insulin” value is “ineffective”.
The same measure, in the same setting: the same measure for `C[S+]([O-])c1ccc(-c2nc(-c3ccncc3)c(-c3ccc(F)cc3)[nH]2)cc1` (stereo not drawn) [SB203580]: “ineffective”.

B1: PH/PTB-S: Myc-tagged truncated mouse IRS-1 (aa 1-365), lacks S407 and S408 (protein, UniProt P35569 1-365, looked up, fragment)
chain: MASPPDTDGFSDVRKVGYLRKPKSMHKRFFVLRAASEAGGPARLEYYENEKKWRHKSSAPKRSIPLESCFNINKRADSKNKHLVALYTRDEHFAIAADSEAEQDSWYQALLQLHNRAKAHHDGAGGGCGGSCSGSSGVGEAGEDLSYDTGPGPAFKEVWQVILKPKGLGQTKNLIGIYRLCLTSKTISFVKLNSEAAAVVLQLMNIRRCGHSENFFFIEVGRSAVTGPGEFWMQVDDSVVAQNMHETILEAMRAMSDEFRPRSKSQSSSSCSNPISVPLRRHHLNNPPPSQVGLTRRSRTESITATSPASMVGGKPGSFRVRASSDGEGTMSRPASVDGSPVSPSTNRTHAHRHRGSSRLHPPLN
modifications: Myc tag
notes: Myc-tagged truncated mouse IRS-1 (aa 1-365), lacks S407 and S408
Turning to B1, the “mobility shift (Ser phosphorylation) following prolonged insulin treatment” value (CHO-T cells, prolonged insulin) is recorded as “no decrease in its mobility”.

B2: PH/PTB-L^S336A: PH/PTB-L with Ser336 mutated to Ala (protein, UniProt P35569 1-430, looked up, variant S336A)
chain: MASPPDTDGFSDVRKVGYLRKPKSMHKRFFVLRAASEAGGPARLEYYENEKKWRHKSSAPKRSIPLESCFNINKRADSKNKHLVALYTRDEHFAIAADSEAEQDSWYQALLQLHNRAKAHHDGAGGGCGGSCSGSSGVGEAGEDLSYDTGPGPAFKEVWQVILKPKGLGQTKNLIGIYRLCLTSKTISFVKLNSEAAAVVLQLMNIRRCGHSENFFFIEVGRSAVTGPGEFWMQVDDSVVAQNMHETILEAMRAMSDEFRPRSKSQSSSSCSNPISVPLRRHHLNNPPPSQVGLTRRSRTESITATSPASMVGGKPGSFRVRASSDGEGTMSRPAAVDGSPVSPSTNRTHAHRHRGSSRLHPPLNHSRSIPMPSSRCSPSATSPVSLSSSSTSGHGSTSDCLFPRRSSASVSGSPSDGGFISSDEYGSSP
modifications: Myc tag
notes: PH/PTB-L with Ser336 mutated to Ala
For B2, the “mobility shift following 30 min insulin treatment” value (CHO-T cells) is given as “identical mobility-shifts as PH/PTB-L^WT”.

B3: PH/PTB-L^S407A: PH/PTB-L with Ser407 mutated to Ala (protein, UniProt P35569 1-430, looked up, variant S407A)
chain: MASPPDTDGFSDVRKVGYLRKPKSMHKRFFVLRAASEAGGPARLEYYENEKKWRHKSSAPKRSIPLESCFNINKRADSKNKHLVALYTRDEHFAIAADSEAEQDSWYQALLQLHNRAKAHHDGAGGGCGGSCSGSSGVGEAGEDLSYDTGPGPAFKEVWQVILKPKGLGQTKNLIGIYRLCLTSKTISFVKLNSEAAAVVLQLMNIRRCGHSENFFFIEVGRSAVTGPGEFWMQVDDSVVAQNMHETILEAMRAMSDEFRPRSKSQSSSSCSNPISVPLRRHHLNNPPPSQVGLTRRSRTESITATSPASMVGGKPGSFRVRASSDGEGTMSRPASVDGSPVSPSTNRTHAHRHRGSSRLHPPLNHSRSIPMPSSRCSPSATSPVSLSSSSTSGHGSTSDCLFPRRASASVSGSPSDGGFISSDEYGSSP
modifications: Myc tag
notes: PH/PTB-L with Ser407 mutated to Ala
As for B3, the “mobility shift following 30 min insulin treatment” value (CHO-T cells) is “identical mobility-shifts as PH/PTB-L^WT”.

B4: PH/PTB-L^S408A: PH/PTB-L with Ser408 mutated to Ala (protein, UniProt P35569 1-430, looked up, variant S408A)
chain: MASPPDTDGFSDVRKVGYLRKPKSMHKRFFVLRAASEAGGPARLEYYENEKKWRHKSSAPKRSIPLESCFNINKRADSKNKHLVALYTRDEHFAIAADSEAEQDSWYQALLQLHNRAKAHHDGAGGGCGGSCSGSSGVGEAGEDLSYDTGPGPAFKEVWQVILKPKGLGQTKNLIGIYRLCLTSKTISFVKLNSEAAAVVLQLMNIRRCGHSENFFFIEVGRSAVTGPGEFWMQVDDSVVAQNMHETILEAMRAMSDEFRPRSKSQSSSSCSNPISVPLRRHHLNNPPPSQVGLTRRSRTESITATSPASMVGGKPGSFRVRASSDGEGTMSRPASVDGSPVSPSTNRTHAHRHRGSSRLHPPLNHSRSIPMPSSRCSPSATSPVSLSSSSTSGHGSTSDCLFPRRSAASVSGSPSDGGFISSDEYGSSP
modifications: Myc tag
notes: PH/PTB-L with Ser408 mutated to Ala
For the molecule B4, for the setting “CHO-T cells”, the “mobility shift following 30 min insulin treatment” value was “abolished the mobility shift”.
